The target in the assay is T1, mCherry-BARD1 (UniProt Q99728 1-777).
T1 construct: also called BRCA1 Associated RING Domain 1; source: HeLa, transfected, in live cells and in lysate
T1 sequence (looked up): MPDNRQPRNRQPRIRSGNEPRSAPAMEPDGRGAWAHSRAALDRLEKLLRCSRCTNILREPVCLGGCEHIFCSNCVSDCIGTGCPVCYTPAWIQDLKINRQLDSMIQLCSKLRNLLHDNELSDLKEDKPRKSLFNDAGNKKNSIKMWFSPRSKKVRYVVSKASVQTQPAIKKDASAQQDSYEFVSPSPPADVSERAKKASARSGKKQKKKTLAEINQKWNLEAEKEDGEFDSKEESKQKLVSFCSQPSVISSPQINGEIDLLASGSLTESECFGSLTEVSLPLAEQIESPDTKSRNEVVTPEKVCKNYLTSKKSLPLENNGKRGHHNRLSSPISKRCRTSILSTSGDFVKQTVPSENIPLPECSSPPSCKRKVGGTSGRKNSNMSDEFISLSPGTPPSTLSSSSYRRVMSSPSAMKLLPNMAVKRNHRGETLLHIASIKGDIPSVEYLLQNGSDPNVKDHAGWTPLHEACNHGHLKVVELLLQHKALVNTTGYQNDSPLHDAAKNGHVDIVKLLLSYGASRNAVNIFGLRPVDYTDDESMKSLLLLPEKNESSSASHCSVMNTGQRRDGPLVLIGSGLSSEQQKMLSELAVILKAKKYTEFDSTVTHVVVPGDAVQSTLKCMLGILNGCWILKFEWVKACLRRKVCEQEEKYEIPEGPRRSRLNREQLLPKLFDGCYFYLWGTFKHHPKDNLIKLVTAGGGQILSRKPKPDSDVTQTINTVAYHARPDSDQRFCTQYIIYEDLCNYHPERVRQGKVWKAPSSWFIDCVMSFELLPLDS
The experiment in a line: fluorescence cross-correlation spectroscopy (FCCS); GFP- and mCherry-tagged proteins co-expressed in live HeLa cells; focal volume in the nucleoplasm (MSH2-MSH6 also in the cytoplasm); room temperature; cross-correlation/autocorrelation ratio. The settings on record: partners not purified.

B1: GFP-BRCA1-C44F (natural protein, UniProt P38398 1-1863, looked up)
chain: MDLSALRVEEVQNVINAMQKILECPICLELIKEPVSTKCDHIFFKFCMLKLLNQKKGPSQCPLCKNDITKRSLQESTRFSQLVEELLKIICAFQLDTGLEYANSYNFAKKENNSPEHLKDEVSIIQSMGYRNRAKRLLQSEPENPSLQETSLSVQLSNLGTVRTLRTKQRIQPQKTSVYIELGSDSSEDTVNKATYCSVGDQELLQITPQGTRDEISLDSAKKAACEFSETDVTNTEHHQPSNNDLNTTEKRAAERHPEKYQGSSVSNLHVEPCGTNTHASSLQHENSSLLLTKDRMNVEKAEFCNKSKQPGLARSQHNRWAGSKETCNDRRTPSTEKKVDLNADPLCERKEWNKQKLPCSENPRDTEDVPWITLNSSIQKVNEWFSRSDELLGSDDSHDGESESNAKVADVLDVLNEVDEYSGSSEKIDLLASDPHEALICKSERVHSKSVESNIEDKIFGKTYRKKASLPNLSHVTENLIIGAFVTEPQIIQERPLTNKLKRKRRPTSGLHPEDFIKKADLAVQKTPEMINQGTNQTEQNGQVMNITNSGHENKTKGDSIQNEKNPNPIESLEKESAFKTKAEPISSSISNMELELNIHNSKAPKKNRLRRKSSTRHIHALELVVSRNLSPPNCTELQIDSCSSSEEIKKKKYNQMPVRHSRNLQLMEGKEPATGAKKSNKPNEQTSKRHDSDTFPELKLTNAPGSFTKCSNTSELKEFVNPSLPREEKEEKLETVKVSNNAEDPKDLMLSGERVLQTERSVESSSISLVPGTDYGTQESISLLEVSTLGKAKTEPNKCVSQCAAFENPKGLIHGCSKDNRNDTEGFKYPLGHEVNHSRETSIEMEESELDAQYLQNTFKVSKRQSFAPFSNPGNAEEECATFSAHSGSLKKQSPKVTFECEQKEENQGKNESNIKPVQTVNITAGFPVVGQKDKPVDNAKCSIKGGSRFCLSSQFRGNETGLITPNKHGLLQNPYRIPPLFPIKSFVKTKCKKNLLEENFEEHSMSPEREMGNENIPSTVSTISRNNIRENVFKEASSSNINEVGSSTNEVGSSINEIGSSDENIQAELGRNRGPKLNAMLRLGVLQPEVYKQSLPGSNCKHPEIKKQEYEEVVQTVNTDFSPYLISDNLEQPMGSSHASQVCSETPDDLLDDGEIKEDTSFAENDIKESSAVFSKSVQKGELSRSPSPFTHTHLAQGYRRGAKKLESSEENLSSEDEELPCFQHLLFGKVNNIPSQSTRHSTVATECLSKNTEENLLSLKNSLNDCSNQVILAKASQEHHLSEETKCSASLFSSQCSELEDLTANTNTQDPFLIGSSKQMRHQSESQGVGLSDKELVSDDEERGTGLEENNQEEQSMDSNLGEAASGCESETSVSEDCSGLSSQSDILTTQQRDTMQHNLIKLQQEMAELEAVLEQHGSQPSNSYPSIISDSSALEDLRNPEQSTSEKAVLTSQKSSEYPISQNPEGLSADKFEVSADSSTSKNKEPGVERSSPSKCPSLDDRWYMHSCSGSLQNRNYPSQEELIKVVDVEEQQLEESGPHDLTETSYLPRQDLEGTPYLESGISLFSDDPESDPSEDRAPESARVGNIPSSTSALKVPQLKVAESAQSPAAAHTTDTAGYNAMEESVSREKPELTASTERVNKRMSMVVSGLTPEEFMLVYKFARKHHITLTNLITEETTHVVMKTDAEFVCERTLKYFLGIAGGKWVVSYFWVTQSIKERKMLNEHDFEVRGDVVNGRNHQGPKRARESQDRKIFRGLEICCYGPFTNMPTDQLEWMVQLCGASVVKELSSFTLGTGVHPIVVVQPDAWTEDNGFHAIGQMCEAPVVTREWVLDSVALYQCQELDTYLIPQIPHSHY
notes: also called p.Cys44Phe; source: HeLa, transfected, in live cells
With B1, the “reduction in binding relative to wild type” value was around 50%.
